Experimental data from the supplement of paper PMC9170038.

Tested on: MS2 coat protein
Test: apparent KD of MS2 coat protein; higher = weaker reporter binding
Conditions: Eterna round: R107; input ligand: none
Method in brief: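 Normalised binding curves from single clusters were fitted, and the median fit for each design is given as apparent KD. The clusters held designed RNA switches transcribed on-chip from Illumina sequencing clusters. These were titrated with SNAP-549-labelled MS2 coat protein (twofold steps from 0.7 or 1.5 nM to 3 µM, 0.8–1.5 h to 10–20 min per step) in 100 mM Tris-HCl pH 7.5, 80 mM KCl, 4 mM MgCl2, without or with constant ligand.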

Going from “GCACAAGAUGGAAGGAGCGCUGGUAGGUGACACAUGAGGAUCACCCAUGUGCUCCUUGCCGAGCAGGUAGGUCGCCAUCUUGUGC [SSAB NP+V+V2 #7]” to “UGCCUAGACGUGGAUUACCCGUGUACCGAAGGAGCGCCCGAAAGGGCAGGUAGGUCGCGGAGGACAUGAGGAUCACCCAUGUUUA”, the “apparent KD of MS2 coat protein” value rises from 27.7 nM to 201 nM (7.3-fold).

“AUAACUGUAAUAAACCGCAGGCUAGUGGAAGGAGCGCGGAAUAACGCAGGUAGGUCGCCACAAACUUGAGGAUCACCCAGGUGGC [SSAA NP+V+V2 #7 Diff Apt]” and “AAAAUCCUACCUGAGGAUCACCCUGGUGAAGGAGCGCCCGAAAGGGCAGGUAGGUCGCACCUGAGGAUCACCCUGGUAAACCUAA [ArgEX 24 #DoubleMS2 #OpenEnded]” are within 1.5-fold of each other in “apparent KD of MS2 coat protein” value: 49 nM for the first, 51.4 nM for the second.

Going from “CGGGUUCGGGCGGCCGCCACUAUGAUUAGGUGUGGGUGUGUUGUGUUACAUGAGGAUCACCCAUGUAGGACCGGGUUUGGGCUUG [Sturgeon]” to “CUAUAAGUAGCGGCCGCCACUUACUCAUGAGGUAACAACAUGAGGAUCACCCAUGUUUGAGGAUCAAGGACCGGGCUAUUUAUAG [AstrosSSTryB#9]”, the “apparent KD of MS2 coat protein” value falls from 52.6 nM to 28.7 nM (1.8-fold).

“GGCACAUAGUCGGCCGCCACUAGUGGGAAAUGGGAGAACAUGAGGAUCACCCAUGUUGCGUAGCCUAGGACCGGGACUAUGUGCC [Hippopotamus]” and “UCGGGCAGAGCGGCCGCCACUGUUUGGCAUGCGGAUGAAGGAACAUGAGGAUCACCCAUGUAGAUUAGGACCGGGCUUUCGGAGA [cctchmullin]” are within 1.5-fold of each other in “apparent KD of MS2 coat protein” value: 30.1 nM for the first, 21.4 nM for the second.

Going from “UGUAUGUGAUCUGAUACCAGCUAGCGGAAACGCAGCUUGAGGAUCACCCAAGUGGAAAUAAGCCCUUGGCAGCAGAUCGCAUACU [Denovo 6 #StaticStem #AlternativeMS2]” to “AUAGUUAUCAGAAGGAGCGUCAUUAACAUGAGGAUCACCCAUGUAACAUUGAAUUCGAUGAGACAGGUAGGUCGCUGAAUAUUAA [SS-ArgB28]”, the “apparent KD of MS2 coat protein” value falls from 246 nM to 39.6 nM (6.2-fold).

Going from “UAUGUGAUAGUCGUACUCUCACACUGAGAAGGAGCGCGAUAGUUCGCAGGUAGGUCGCUCAGUUAUACAUGAGGAUCACCCAUGU [Isrice]” to “AAACGCCACGGAAGGAGCGACAUGAGGAUCACCCAUGUAGACGUGGCGGAUGCACCCUCCUGUCAGGUAGGUCGCCGUGCGCCAA [Engebite]”, the “apparent KD of MS2 coat protein” value falls from 32.6 nM to 11 nM (3-fold).

“GUUGGUUUGCGAAGGAGCGGGUAUGUUGUCUACUGGAUCCUAACAUGAGGAUCACCCAUGUCCCAGGUAGGUCGCGCGGGCUUUG [12.aB]” and “GUCUCUGAGAGAAGGAGCGUGAAGACAUGAGGAUCACCCAUGUAGAGGCGCCGACGGCGUUCGCAGGUAGGUCGCUCUCAGAGAC [#1 Same State - Arginine B Attempt #19 (HarryS)]” are within 1.5-fold of each other in “apparent KD of MS2 coat protein” value: 28.3 nM for the first, 22 nM for the second.

Going from “GGCACAUAGUCGGCCGCCACUAGGCUGUAGUGGGAGGACAUGAGGAUCACCCAUGUAUUUGGUACUAGGACCGGGACUAUGUGCC [Lion]” to “UGGCGAGAAGGAAGGAGCGUCAGCUGAGUCACAUGAGGAUCACCCAUGUAGCACAUAGUGUGACAGGUAGGUCGCCUUCUGCCCU [SS-ArgB17]”, the “apparent KD of MS2 coat protein” value falls from 191 nM to 10.3 nM (19-fold).

Going from “UAGACGGCCGGAAGGAGCGGUACAUGAGGAUCACCCAUGUACCUCUGGGCAUCCGUAGUGUGCCAGGUAGGUCGCCGGUUGCGGG [Tebecela]” to “AGUCUUAUAGGAAGGAGCGCAUACUUCACAUGAGGAUCACCCAUGUCAAGACGUGAGUCAAUGCAGGUAGGUCGCCUAACUAAGA [Same State - Arginine B (Freestyle 12)]”, the “apparent KD of MS2 coat protein” value rises from 11.6 nM to 18.8 nM (1.6-fold).

Going from “GGACUAACCAGAAGGAGCGGCGCGCAGAAACUGCAAAUUCCUCCGCACGAGGAUCACCCGUGUCAGGUAGGUCGCUGGUUAGUCG [ArgBX 28]” to “CGGUAUGGGACGGCCGCCACUAUUAUGUAACAAAAUAAACAUGAGGAUCACCCAUGUACAUGGGAUAGGACCGGGUCCUAUAGCG [#23 Same State - Tryptophan B]”, the “apparent KD of MS2 coat protein” value rises from 14.2 nM to 55.7 nM (3.9-fold).

Same assay, conditions: Eterna round: R107; input ligand: theophylline 20 uM

First: ACCUGCGUUUGAUAAAAUCAGACGCAGGUUCGAGGACCGGUACGGCCGCCACUCGGACAUGAGGAUCACCCAUGUUUGACAUGGG [#05 Exclusion Tryptophan A]
Second: GCACAAGAUGGAAGGAGCGCUGGUAGGUGACACAUGAGGAUCACCCAUGUGCUCCUUGCCGAGCAGGUAGGUCGCCAUCUUGUGC [SSAB NP+V+V2 #7]
The “apparent KD of MS2 coat protein” value of the first is 7.5-fold higher: 301 nM for the first, 40.3 nM for the second.

Going from “UGCCUAGACGUGGAUUACCCGUGUACCGAAGGAGCGCCCGAAAGGGCAGGUAGGUCGCGGAGGACAUGAGGAUCACCCAUGUUUA” to “ACUUUGUCGGGUGAUACCAGCCUCGGCACAUCUCGUGCCGAACAUGAGGAUCACCCAUGUGGCCCUUGGCAGCACAUGACAACUC [Quceanteri]”, the “apparent KD of MS2 coat protein” value rises from 151 nM to 637 nM (4.2-fold).

Compared with “AUAACUGUAAUAAACCGCAGGCUAGUGGAAGGAGCGCGGAAUAACGCAGGUAGGUCGCCACAAACUUGAGGAUCACCCAGGUGGC [SSAA NP+V+V2 #7 Diff Apt]”, “AAUAACAUGAGGAUCACCCAUGUAAAAGAUACCAGAGUGAUGAUCCUCCCUUGGCAGCUUAAAACGCUAUUGGAAACAAUAGCGA [Mat - Same State Theophlline A - Mod of Eli - D5]” is 2.3-fold higher in “apparent KD of MS2 coat protein” value: 78.8 nM for the first, 179 nM for the second.

First: AAAAUCCUACCUGAGGAUCACCCUGGUGAAGGAGCGCCCGAAAGGGCAGGUAGGUCGCACCUGAGGAUCACCCUGGUAAACCUAA [ArgEX 24 #DoubleMS2 #OpenEnded]
Second: CGGGUUCGGGCGGCCGCCACUAUGAUUAGGUGUGGGUGUGUUGUGUUACAUGAGGAUCACCCAUGUAGGACCGGGUUUGGGCUUG [Sturgeon]
The “apparent KD of MS2 coat protein” value of the first is 2.1-fold lower: 40.3 nM for the first, 84.5 nM for the second.

Going from “UGUAACAUGAGGAUCACCCAUGUAAGUGAUACCAGAUAAGUAGUAGUCCCUUGGCAGCAUAUUGGGAAAGUGUAUAGUCUAUAUU [Same State - Theophylline A (Freestyle 3)]” to “GCUAGGUCAUCGGCCGCCACUAACGAUGGCUCCGACAUGAGGAUCACCCAUGUGCCACAUGCGCAUAGGACCGGGAUGACCUAGC [SSTB NP+V+V2 #2]”, the “apparent KD of MS2 coat protein” value falls from 74.9 nM to 22.7 nM (3.3-fold).

“CUAUAAGUAGCGGCCGCCACUUACUCAUGAGGUAACAACAUGAGGAUCACCCAUGUUUGAGGAUCAAGGACCGGGCUAUUUAUAG [AstrosSSTryB#9]” and “AUUCAUGGAAACAUGACAUACAUAACCGGUCGAGGACCGGUACGGCCGCCACUCGGUUGGUGGCACAUGAGGAUCACCCAUGUUA [SS Tryp A #10]” are within 1.5-fold of each other in “apparent KD of MS2 coat protein” value: 32.6 nM for the first, 39.3 nM for the second.

Compared with “GGCACAUAGUCGGCCGCCACUAGUGGGAAAUGGGAGAACAUGAGGAUCACCCAUGUUGCGUAGCCUAGGACCGGGACUAUGUGCC [Hippopotamus]”, “ACAUGAGGAUCACCCAUGUUCCUCAUUGAUACCAGUGAAAGAAGACGCCCUUGGCAGCGAGAAGAAGAAGAAGAAGUUUUUUUUU [6.B]” is 20-fold higher in “apparent KD of MS2 coat protein” value: 37.6 nM for the first, 770 nM for the second.

Going from “UCGGGCAGAGCGGCCGCCACUGUUUGGCAUGCGGAUGAAGGAACAUGAGGAUCACCCAUGUAGAUUAGGACCGGGCUUUCGGAGA [cctchmullin]” to “UGUAUGUGAUCUGAUACCAGCUAGCGGAAACGCAGCUUGAGGAUCACCCAAGUGGAAAUAAGCCCUUGGCAGCAGAUCGCAUACU [Denovo 6 #StaticStem #AlternativeMS2]”, the “apparent KD of MS2 coat protein” value rises from 32.8 nM to 139 nM (4.2-fold).

“AUAGUUAUCAGAAGGAGCGUCAUUAACAUGAGGAUCACCCAUGUAACAUUGAAUUCGAUGAGACAGGUAGGUCGCUGAAUAUUAA [SS-ArgB28]” and “UAUGUGAUAGUCGUACUCUCACACUGAGAAGGAGCGCGAUAGUUCGCAGGUAGGUCGCUCAGUUAUACAUGAGGAUCACCCAUGU [Isrice]” are within 1.5-fold of each other in “apparent KD of MS2 coat protein” value: 48 nM for the first, 32.9 nM for the second.

For “AGAAUAUAGUCGGCCGCCACUCUACAUACAUGAGGAUCACCCAUGUUUACAUAGUGAAUAUACAUGAGGACCGGGACAUAGGCAU [JR_SSTryptoB_Sub020]”, the “apparent KD of MS2 coat protein” value was 26.1 nM.
